The target in test [1] is B7-H3 on human cancer cells (human) (UniProt Q5ZPR3). The test can be described thus: cell-based or functional assay.
In test [2] the target is T1, recombinant human 2Ig B7-H3 (human, UniProt Q5ZPR3 29-466).
T1 construct: Bought recombinant protein (R&D Systems); also called 2lg B7-H3
T1 sequence: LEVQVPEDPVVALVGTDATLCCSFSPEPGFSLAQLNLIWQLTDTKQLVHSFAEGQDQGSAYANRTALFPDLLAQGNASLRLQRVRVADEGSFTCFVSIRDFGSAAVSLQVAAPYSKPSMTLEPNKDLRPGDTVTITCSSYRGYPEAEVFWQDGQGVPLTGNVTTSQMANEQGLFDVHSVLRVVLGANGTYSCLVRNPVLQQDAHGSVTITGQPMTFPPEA
The test can be described thus: indirect ELISA, antigen coated at 1 ug/mL, anti-human Fc-HRP, absorbance at 450 nm. On the procedure:
(§1) The binding ability of 2D IgG prepared in Example 2 for recombinant B7-H3 protein was investigated by indirect ELISA. For indirect ELISA, recombinant human 4lg B7-H3, recombinant human 2lg B7-H3 and recombinant mouse B7-H3 were diluted respectively to 1 μg/mL in 50 μL of PBS and adsorbed overnight onto a 96-well immunoplate (Corning, USA) by storing at 4° C. After reaction with a buffer solution containing 3% bovine serum albumin at room temperature for 1 hour, followed by washing 3 times with a buffer solution containing 0.5% Tween 20, each well was treated with 50 μL of the antibodies diluted serially (0.0001, 0.0003, 0.001, 0.003, 0.01, 0.03, 0.1, 0.3, 1, 3 and 10 nM). For antigen-antibody binding, the mixture was reacted at room temperature for 2 hours, and then washed 3 times with a buffer solution containing 0.5% Tween 20. After treating each well with 50 μL of anti-human immunoglobulin Fc-HRP antibodies (Jackson Immunoresearch, USA) diluted to 1:3,000, reaction was conducted at room temperature for 1 hour. […] As a result of measuring absorbance at 450 nm using a spectrophotometer (Biotek, USA), it was confirmed that 2D IgG binds to B7-H3, and the binding ability was in the order of 4lg B7-H3, 2lg B7-H3 and mouse B7-H3 (FIG. 2a).
A general note: An ELISA detects its analyte on a solid surface through an enzyme-linked reagent.

The target of test [3] is T2, recombinant human 4Ig B7-H3 (human, UniProt Q5ZPR3 29-461, limits assumed).
T2 construct: Bought recombinant protein (Sino Biological); also called 4lg B7-H3
T2 sequence: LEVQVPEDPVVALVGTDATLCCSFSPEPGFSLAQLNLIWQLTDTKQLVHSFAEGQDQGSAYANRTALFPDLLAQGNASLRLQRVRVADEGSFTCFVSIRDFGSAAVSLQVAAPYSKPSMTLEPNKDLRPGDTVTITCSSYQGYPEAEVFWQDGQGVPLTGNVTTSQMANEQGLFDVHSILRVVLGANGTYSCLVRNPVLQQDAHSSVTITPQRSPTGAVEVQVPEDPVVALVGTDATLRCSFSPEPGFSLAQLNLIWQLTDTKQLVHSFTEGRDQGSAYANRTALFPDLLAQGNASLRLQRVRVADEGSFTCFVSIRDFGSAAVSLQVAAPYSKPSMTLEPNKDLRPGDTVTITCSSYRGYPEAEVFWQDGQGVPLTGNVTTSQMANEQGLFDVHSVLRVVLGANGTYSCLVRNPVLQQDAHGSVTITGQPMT
Described as above. The method, then: as §1

Test [4] has as its target T3, human 4Ig B7-H3 expressed on Raji cells (human) (UniProt Q5ZPR3).
T3 sequence: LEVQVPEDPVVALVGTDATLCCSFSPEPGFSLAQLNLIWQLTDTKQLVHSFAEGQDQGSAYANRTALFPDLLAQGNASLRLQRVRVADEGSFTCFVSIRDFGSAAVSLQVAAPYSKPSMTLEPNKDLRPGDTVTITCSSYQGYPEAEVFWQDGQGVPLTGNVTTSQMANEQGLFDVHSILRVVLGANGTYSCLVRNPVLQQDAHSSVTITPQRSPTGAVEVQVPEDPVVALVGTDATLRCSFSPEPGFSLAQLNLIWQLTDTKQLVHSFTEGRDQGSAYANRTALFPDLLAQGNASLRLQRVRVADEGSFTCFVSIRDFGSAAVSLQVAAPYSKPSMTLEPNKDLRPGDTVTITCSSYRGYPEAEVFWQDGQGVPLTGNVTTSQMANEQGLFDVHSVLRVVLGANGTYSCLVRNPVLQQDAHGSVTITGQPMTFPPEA
The test can be described thus: flow cytometry on Raji cells expressing 4Ig B7-H3; the vector control Raji cells show < 2%. (Flow cytometry measures light scatter and fluorescence of single cells or particles in a stream.)

Bounds are passed on as bounds.

The molecule “enoblituzumab with wild-type Fc (antibody)” came in with a T cell-mediated A549 cell-killing effect (GFP fluorescence of A549 cells after 48 h co-culture with activated PBMCs; negative control group = 100) in test [1] of 77.3.

B1: 2D IgG (antibody, V domains shown)
VH: AVTLDESGGGLQTPGGGLSLVCKASGFDFSSYPMVWVRQAPGKGLEYVASINSGGSWTGYGAAVKGRATISRDNGQSTVRLQLNNLRAEDTATYYCARAYGAATIDAWGHGTEVIVSS
VL: ALTQPSSVSANLGGTVKITCSGGSIGYGWYQQKAPGSAPVTVIYYNDRRPSDIPSRFSGSKSGSANTLTITGVQADDEAIYYCGSADSSSTYTGIFGAGTTLTVL
notes: Chicken/human chimeric complete antibody (full-length IgG); also called 2D complete antibody; parent antibody (2D)
B1: the results for the concentration giving a half-maximal response (EC50 (read off the curve)) in test [2] and in test [3] were about 0.2 nM and about 0.006 nM, respectively.

B2: enoblituzumab (antibody, part only; not given: Constant regions, V domains shown, not shown: another chain or arm of the molecule)
VH: EVQLVESGGGLVQPGGSLRLSCAASGFTFSSFGMHWVRQAPGKGLEWVAYISSDSSAIYYADTVKGRFTISRDNAKNSLYLQMNSLRDEDTAVYYCGRGRENIYYGSRLDYWGQGTTVTVSS
VL: DIQLTQSPSFLSASVGDRVTITCKASQNVDTNVAWYQQKPGKAPKALIYSASYRYSGVPSRFSGSGSGTDFTLTISSLQPEDFATYYCQQYNNYPFTFGQGTKLEIK
The molecule B2 yielded a % of cells in the positive gate (P3) in test [4] of over 70%.

As a reminder, the EC50 (read off the curve) is the concentration at which the effect is half-maximal.

Source of the values: patent publication US20260201038A1 (CELLABMED, published 2026).
